# Laboratory results from the supplement of paper PMC9170038.
# System: MS2 coat protein
# Assay: apparent KD of MS2 coat protein; designed switch direction (-1 OFF switch, 1 ON switch): -1; higher = weaker reporter binding
# Procedure, shortened: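 For each design, the apparent KD is the median over clusters of curves fitted to normalised cluster fluorescence. Clusters held RNA switches with common flanks, transcribed on Illumina chips by stalled E. coli RNA polymerase. These were titrated with SNAP-549-labelled MS2 coat protein, doubling from 0.7 or 1.5 nM to 3 µM, without input, with 200 uM small-molecule ligand, or with an oligonucleotide input.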
# [1] = input ligand: microRNA oligo, concentration not stated
# [2] = Eterna round: R95, input ligand: FMN 200 uM
# [3] = Eterna round: R95, input ligand: microRNA oligo, concentration not stated
# [4] = Eterna round: R95, input ligand: none
Sequence,apparent KD of MS2 coat protein (input ligand: FMN 200 uM),apparent KD of MS2 coat protein [1],apparent KD of MS2 coat protein (input ligand: none),apparent KD of MS2 coat protein [2],apparent KD of MS2 coat protein [3],apparent KD of MS2 coat protein [4]
"AAAAAAAGACAAGAGGAGAUUCGUCUUAAAAAUCCUCAAACAUGAGGAUCACCCAUGUAAAAUGAUCGAAAGAUCAA [Mat - Sensor v2 - ver2 - JL mod - D39] (Eterna round: R96, puzzle: Sensor v2, turn-off variant 2)",25.7 nM,24 nM,29.2 nM,–,–,–
AAAAAACAAGGAUAUACGAAGGAGGGUUGUCUUAAUUUUUGACAUGAGGAUCACCCAUGUAGAAGGUGUUAAAA [JR_Exclusion2_Sub012] (puzzle: Exclusion 2),–,–,–,146 nM,186 nM,188 nM
AAAAAACAAGGAUAUACGCACGAGGAUUGUCUUAAUUUUUGACAUGAGGAUCACCCAUGUAGAAGGUGUUAAAA [JR_Exclusion2_Sub014] (puzzle: Exclusion 2),–,–,–,–,76.5 nM,–
AAAAAACAAGGAUAUACGUAUGAGGAUUGUCUUAAUUUUUGACAUGAGGAUCACCCAUGUAGAAGGUGUUAAAA [JR_Exclusion2_Sub015] (puzzle: Exclusion 2),–,–,–,–,94.9 nM,–
"AAAAAAUACAUGAGGAUCACCCAUGUAGAGUGGGAAGAGAGAUAGGAUAUGAUGUGAGAAUCAUAUCAGAAGGAUCGAGACUCA [AK ExNG3-2.2] (Eterna round: R96, puzzle: Exclusion NG 3)",143 nM,110 nM,139 nM,–,–,–
"AAAAACAAGCCCAUGCUCGUCUUAAGAUCGAAAGAUCAAACAUGAGGAUCACCCAUGUGCGAGCAUGGGUGAUCCUC [Sensor v2, turn off variant 2 (JL Turnoff v2 4 - MOD3)] (Eterna round: R96, puzzle: Sensor v2, turn-off variant 2)",21.9 nM,10.2 nM,16.6 nM,–,–,–
AAAAAGAGAGGAUAUACAUGAGGAUCACCCAUGUGAGGGCACCGCGGGCGCGGGACCCGUAGAAGGCUCAAAAA [Exc;s3-I] (puzzle: Exclusion 3),–,–,–,16.5 nM,14.7 nM,20.5 nM
"AAAAAGGCAGGAUAUACGAGUCAAAGAAAAGACAAAAGGAGACAUGAGGAUCACCCAUGUAGAAGGGCCAAAAA [Fiskers exclusion D2 62% 5] (Eterna round: R96, puzzle: Exclusion 2)",85.2 nM,20.6 nM,25.3 nM,–,–,–
"AAAAAGGGAGGAUAUACAUGAGGAUCACCCAUGUAGCAGACGAAAAAGAGUCUGUAAUGUAGAAGGCCCAAAAA [65%, Moding Exclusion3-cac2, 4] (Eterna round: R96, puzzle: Exclusion 3)",50.9 nM,13.1 nM,17.5 nM,–,–,–
"AAAAAGUUAGGAUAUACAUGAGGAUCACCCAUGUACAUAUAUGGAGAAAAAAACAGUAGUAGAAGGGACAAAAA [EX2 Malc#12] (Eterna round: R96, puzzle: Exclusion 3)",28.8 nM,23.3 nM,29.2 nM,–,–,–
"AAAACCAGAGGAUAUGCGCAUAGAUAAGACUUUGUUUCUUAACAUGAGGAUCACCCAUGUAGAAGGCUGUAAAA [Ex2 #71] (Eterna round: R97, puzzle: Exclusion 2)",20.6 nM,–,22 nM,–,–,–
AAAACGGCAGGAUAUACAUGAGGAUCACCCAUGUGAAAUAAAAUAAAAUAAAAUAAAAGUAGAAGGGCCAAAAA [Exclusion 3 #3] (puzzle: Exclusion 3),–,–,–,40.4 nM,40.7 nM,58.6 nM
"AAAACUGCCUAGGAUAUCUGAAGCCGAGGUAGAAGAGAAGGAGGCACAUGAGGAUCACCCAUGUCCCUCAUAAA [EX6 A.8] (Eterna round: R97, puzzle: Exclusion 6)",16.8 nM,–,14.3 nM,–,–,–
AAAACUGCUCAGGAUAUUUGUGUGUCAGGGCAUAAAGAAGGGAGCACAUGAGGAUCACCCAUGUGUUGGGUUCC [Zasozaer] (puzzle: Exclusion 6),–,–,–,–,68.7 nM,–
"AAAACUUUGAGAGGAUAUCUGAAAGGAAGUGUAAGAGAAGGCUCAGAGGACAUGAGGAUCACCCAUGUACGUCAUGGGCUCCGA [PowerStrip EXNG 1.15] (Eterna round: R96, puzzle: Exclusion NG 1)",49.8 nM,39.6 nM,111 nM,–,–,–
AAAAGAAGUGUUAGGAUAUGUGGAAGUAGAAAGACACAGAAGGAACAUGAGGAUCACCCAUGUGGCCUAAGAAC [Bibire] (puzzle: Brourd's mod of Exclusion 4),–,–,–,15.4 nM,10.5 nM,11.6 nM
"AAAAGGCAAGCAUGAUCCCACAUGAGGAUCACCCAUGUGUUCGUCUUAUAGGCUGCUGAGGCUUUUGCCUCGGUGGC [LRO Sensor-off var1-05 loose mod of D91 from Mat747] (Eterna round: R97, puzzle: Sensor, turn-off variant 1)",587 nM,–,728 nM,–,–,–

Sequence,apparent KD of MS2 coat protein (input ligand: FMN 200 uM),apparent KD of MS2 coat protein [1],apparent KD of MS2 coat protein (input ligand: none),apparent KD of MS2 coat protein [2],apparent KD of MS2 coat protein [3],apparent KD of MS2 coat protein [4]
"AAAAGGCAGGGAGGAUAUGCUUACCUGGGUCGUCUUCAAACAUGAGGAUCACCCAUGUAGUCGACGCAGAAGGCCCUCAAAGCC [Mat - Exclusion NG 2 - Mod of JL - D58] (Eterna round: R96, puzzle: Exclusion NG 2)",39.6 nM,21.2 nM,22.7 nM,–,–,–
"AAAAGGCGAGGAUAUCCGGGCACGGACAUGAGGAUCACCCAUGUGACCUCGCCCGGCGGAGGAGAAGGCGCCGAAG [Biestein] (Eterna round: R97, puzzle: Exclusion 5)",368 nM,–,158 nM,–,–,–
AAAAGGCGUGUGAGGAUAUCCGGAGACGUGAAAAGGGAGAAGGCACAUGAGGAUCACCCAUGUGGAGUGUAAAG [Uscece] (puzzle: Brourd's mod of Exclusion 4),–,–,–,38.2 nM,18.6 nM,27.5 nM
AAAAGGUCAGGAUAUUCAAGAAAAGAAAAGAAAAGAAAAGAGAAGAAGGGACAUGAGGAUCACCCAUGUAAAAG [Default title] (puzzle: Exclusion 4),–,–,–,24.9 nM,18.9 nM,13.5 nM
"AAAAGUCUUUAGGAUAUGUGCGAUUAAUAUCGUGCAGAAGGAAGGACAUGAGGAUCACCCAUGUUGAAGACAAC [Omei Ex6 A19] (Eterna round: R97, puzzle: Exclusion 6)",51.1 nM,–,22.1 nM,–,–,–
"AAAAGUUGGUAAGGAUAUCCCACAUUAUUCUGACCCGUGCAAGCUACAUGAGGAUCACCCAUGUGGGAGAAGGUGCGUUAAAGA [Zatiisor] (Eterna round: R96, puzzle: Exclusion NG 2)",209 nM,55.1 nM,78.8 nM,–,–,–
"AAAAUACAUGAGGAUCACCCAUGUCAGGAUAUGCUAAAAAAAAAAUUAAAAAAAAAAUGUAGAAGGGACUAAAA [Exclusion Z2] (Eterna round: R96, puzzle: Exclusion 1)",–,71.6 nM,–,–,–,–
"AAAAUACGCACAGGAUAUCAAUACAUGAGGAUCACCCAUGUAACAUGGACUGGUCAGCAGAAAAGUGAGAAGGGUGCUGACGAC [Beraon] (Eterna round: R96, puzzle: Exclusion NG 2)",187 nM,31.6 nM,45.6 nM,–,–,–
"AAAAUACGCACAGGAUAUCGAUACAUGAGGAUCACCCAUGUAACAUGGACUGGUCAGCAGAAAAGCGAGAAGGGUGCUGACGAC [Lediaroren] (Eterna round: R96, puzzle: Exclusion NG 2)",334 nM,90.3 nM,55.6 nM,–,–,–
"AAAAUGUAAGGAUAUCGUUCACUUGACAAAAGUCAAGUGAACGAGAAGGUACAUGAGGAUCACCCAUGUAUGGG [-29.9, -29 kcal, A 38%] (Eterna round: R97, puzzle: Exclusion 4)",131 nM,–,1340 nM,–,–,–
AAAAUGUCAGGAUAUGUGAAAGAAAAGAAAAGAAAAGAAAAACAGAAGGGACAUGAGGAUCACCCAUGUAAGAA [Exclusion 4 #3] (puzzle: Exclusion 4),–,–,–,21.6 nM,25.2 nM,27.1 nM
"AAACAAGCGUGAGGCUCGUCUUAAAAAGCCUCAUGAAAAACAUGAGGAUCACCCAUGUAAAAUGAUCGAAAGAUCAA [JL turnoff v2 29] (Eterna round: R96, puzzle: Sensor v2, turn-off variant 2)",15.5 nM,43.4 nM,17.6 nM,–,–,–
"AAACAAGCGUGAGGCUCGUCUUAAAAAGCUUCAUGAAAAACAUGAGGAUCACCCAUGUAAAAUGAUCGAAAGAUCAA [JL turnoff v2 28] (Eterna round: R96, puzzle: Sensor v2, turn-off variant 2)",15.4 nM,34.2 nM,18.2 nM,–,–,–
"AAACACCAAGGAUAUACAUGAGGAUCACCCAUGUGGUCCGGCACGGGUCUCGAUUCGAGUAGAAGGUGGAUGGG [Eternabot (L1) Solution 80] (Eterna round: R97, puzzle: Exclusion 3)",56.7 nM,–,76.5 nM,–,–,–
"AAACAGGAAGGAUAUACAUGAGGAUCACCCAUGUAGGAAAACCUACCAAAAGACCCAAGUAGAAGGUCCGAAAA [jl-ex3-4.64 ViennaUCT mod] (Eterna round: R97, puzzle: Exclusion 3)",25.8 nM,–,15.3 nM,–,–,–
AAACAGGGAGGAUAUACAUAGAUCGUCUAACCUAAUUGGUCACAUGAGGAUCACCCAUGUAGAAGGCCCUUAGG [Tiisdixe] (puzzle: Exclusion 2),–,–,–,–,22.2 nM,–
